Measurements published in patent US20100158968A1 (PURDUE RESEARCH FOUNDATION, published 2010).

Target: mitogen-activated protein kinase-activated protein kinase 2 (human MK2) (human, UniProt P49137 46-400, limits assumed)
Assay: cell-based or functional assay

Chain of mitogen-activated protein kinase-activated protein kinase 2 (human MK2) (P49137 46-400 limits assumed): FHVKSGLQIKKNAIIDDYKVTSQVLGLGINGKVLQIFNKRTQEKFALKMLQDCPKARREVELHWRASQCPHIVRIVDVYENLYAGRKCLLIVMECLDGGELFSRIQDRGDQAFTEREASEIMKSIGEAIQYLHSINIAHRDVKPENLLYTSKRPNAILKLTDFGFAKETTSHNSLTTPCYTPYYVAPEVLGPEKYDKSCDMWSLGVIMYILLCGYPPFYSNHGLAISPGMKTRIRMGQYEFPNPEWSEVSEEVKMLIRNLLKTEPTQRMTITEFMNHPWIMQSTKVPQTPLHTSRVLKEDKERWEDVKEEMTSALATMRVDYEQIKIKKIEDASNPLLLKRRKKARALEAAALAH

B1: therapeutic inhibitor peptide incorporating the PTD peptide WLRRRIKAWLRRI [SEQ ID NO: 38] and the therapeutic domain KALNRQLGVAA [SEQ ID NO: 13] (peptide)
peptide: WLRRRIKAWLRRIKALNRQLGVAA
IC50 (radiometric kinase assay), fold lower than the therapeutic inhibitor peptide incorporating the PTD peptide … [SEQ ID NO: 5]: > 30 fold
